Reference: patent US20110217317A1 (published 2011)

T1: Rhesus D antigen (human, UniProt Q02161 2-417)
T1 construct: whole, on cells; Presented on RhD-positive erythrocytes in all assays; also called RhD; RhD antigen
T1 sequence (looked up): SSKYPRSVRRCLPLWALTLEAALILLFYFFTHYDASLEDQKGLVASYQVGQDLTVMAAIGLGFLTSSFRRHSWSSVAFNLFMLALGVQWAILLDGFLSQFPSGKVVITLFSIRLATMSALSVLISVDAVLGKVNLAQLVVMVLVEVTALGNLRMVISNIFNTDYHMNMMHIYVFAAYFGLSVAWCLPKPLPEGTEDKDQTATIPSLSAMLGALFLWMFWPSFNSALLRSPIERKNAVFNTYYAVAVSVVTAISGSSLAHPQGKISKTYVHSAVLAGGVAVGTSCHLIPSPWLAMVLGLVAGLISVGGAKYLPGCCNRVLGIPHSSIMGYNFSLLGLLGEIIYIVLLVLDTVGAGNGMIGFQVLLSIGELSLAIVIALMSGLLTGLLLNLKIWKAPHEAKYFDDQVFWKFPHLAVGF


The binders below were run against T1, Rhesus D antigen (assay: agglutination assay, Fab on RhD(+)/RhD(-) RBC mix).
Experimental: After each round of panning single colonies were picked for analysis of their binding properties to red blood cells in agglutination assays. Briefly, single colonies were inoculated into 2×YT/100 μg/mL carbenicillin/1% glucose and shaken overnight at 37° C. The next day, DeepWell plates were inoculated using 900 μl 2×YT/100 μg/mL carbenicillin/0.1% glucose and 10 μl overnight culture. The plates were shaken for two hours at 37° C., before Fab induction was performed with addition of 300 μl 2×YT/100 μg/mL carbenicillin/0.25 mM IPTG per well. The plate was shaken overnight at 30° C. The following day, the bacteria were pelleted by centrifugation (3200×g, 4° C., 10 minutes), and re-suspended in 100 μl of 0.8 M NaCl, 0.2×PBS, 8 mM EDTA, and incubated for 15 minutes on ice in order to perform a periplasmic extraction of the Fab fragments. The plate was transferred to −20° C. and finally the suspension was thawed and centrifugation was performed for 10 minutes at 4° C. and 3200×g. The periplasmic extract was used in ELISA assays for analysis of Fab content and in agglutination assays to evaluate the binding potential of the individual Fab fragments. The agglutination assay was performed as follows: RhD(−) and RhD(+) RBC were mixed in a 1:1 ratio, and washed 3 times in PBS. After the final wash, the cell mix was re-suspended in 1% BSA in PBS at a density of 1% cells, 50 μl was added to each well of a 96-plate. Periplasmic extracts were added to the wells. As a positive control Rhesogamma P immunoglobulin (Aventis) was used according to the manufacturer's instructions. The plates were incubated for one hour at room temperature with gentle shaking. The cells were washed three times with PBS, before the secondary antibody was added (goat anti-human Fab/FITC conjugate, Sigma F5512) in a 1:100 dilution. The plates were left for agglutination for one hour at room temperature without shaking. Fab fragments positive in the agglutination assay was determined by visual inspection, and recorded by taking a picture. Quantization of the binding activity of the Fab fragments was performed by FACS analysis of the agglutination samples.

binding result | Binder
binds | RhD197.127A08 (Fab, V domains shown, Tested as Fab (periplasmic extract); lambda clone) VH: QVQLVESGGGVVQPGRSLRLSCAASGFTFSNYGMHWVRQAPGKGLEWVAVIWFDGSNRDYADSVKGRFTISRDNSKKTLYLQMNSLRAEDTAVYYCATELARGRLRALEYWGQGTLVTVSS VL: QTVVTQEPSLTVSPGGTVTLTCASSTGAVTTGYYPNWFQQKPGQAPRALIYSTSKKHSWTPARFSGSLLGGKAALTLSGVQPEDEAEYYCLLFYGGAQLGVFGGGTKLTVLG
binds | RhD207.127A11 (Fab, V domains shown, Tested as Fab (periplasmic extract)) VH: EVQLVESGGGVVQPGRSLRLSCAASGFTFSSYGMHWVRQAPGKGLEWVAVIWYDGSNKDYVDSVKGRFTISRDNSKNTLYLQMNSLRAEDTAVYYCARELAKGRLRDLDHWGQGTLVTVSS VL: QAVVTQEPSLTVSPGGTVTLTCASSTGAVTTGYYPNWFQQKPGQAPRALVHSTSKKHSWTPARFSGSLLGGKAALTLSGVQPEDEAEYYCLLFYGGAQLGVFGGGTKLTVLG
binds | RhD157.119D11 (Fab, V domains shown, Tested as Fab (periplasmic extract)) VH: EVQLVESGGGLVQPGGSLRLSCVASGFTFRSFDMNWVRQAPGKGLEWVSYINSRGSTIYYADSVKGRFTISRENAKNSLYLQMNSLRAEDTAVYYCARDLYGDYDPKSYYYYGMGVWGQGTTVTVSS VL: EIVLTQSPATLSLSPGERATLSCRASQSVSSYLAWYQQKRGQAPRLLIFNASNRATGIPARFSGSGSGTDFTLTISSLEPEDFAVYYCQQRSSWPPMYTFGQGTKLEIKR
binds | RhD192.119G06 (Fab, V domains shown, Tested as Fab (periplasmic extract)) VH: QVQLVESGGGLVKPGGSLRLSCAASGFTFSSYAMNWVRQAPGKGLEWVSSISGTSSYIYYADSVKGRFTIFRDNAKSSVYLQMNSLRVEDTAVYYCARDRWWGMVRRVFPTYPFDYWGQGTLVTVSS VL: DIQLTQSPSSVSASVGDRVTITCRASQGINNLLAWYQQKPGKAPKLLIYAASNLQSGVPSRFSGSGSGTDFTLTINSLQPEDFATYYCQQANSFPLTFGGGTKVEIKR
binds | RhD190.119F05 (Fab, V domains shown, Tested as Fab (periplasmic extract)) VH: EVQLVETGGGVVQPGRSLRLSCAASGFSFSNYGMHWVRQAPGKGLEWVAVIWFDGSIKYYVDSVKGRFTISRDNSKNTLYLQMNSLRAEETAIYFCARENSVLVPGTIRRRYYLDYWGQGTLVTVSS VL: DIQLTQSPSSLSASVGDRVTITCRASQSISSYLNWYQQKPGEAPKLLIYVASTLQSGAPSRFSGSGSGTDYTLTISSLQPEDSATFYCQQTYSPPYTFGQGTKLEIKR
binds | RhD199.164E03 (Fab, V domains shown, Tested as Fab (periplasmic extract)) VH: QVQLVESGGGVVQPGRSLRLSCAASGFTFSSYGMHWVRQAPGKGLEWVAVIWYDGSNKYYADSVKGRFTISRDNSKNTLHLQMNSLRAEDTAVYYCAREVGFGSGWSRYYYGMDVWGQGTTVTVSS VL: not shown
binds | RhD195.127A07 (Fab, V domains shown, Tested as Fab (periplasmic extract)) VH: QVQLQESGPGLVKPSQTLSLTCTVSGGSISSGSYYWSWIRQPAGKGPEWIGRIYTSGSTNYNPSLKSRLTISVDTSKNQFSLKLTSVTAADTAVYYCARAPSYYDSSGYRYWYIDLWGRGTLVTVSS VL: DIQLTQSPSSLSASVGDRVTITCRASQNINRYLNWYQHKPGRAPELLIYAASTLRRGVPSRFSGSGSGTDFTLTISSLQPEDFATYYCQQSYSRGTFGQGTKVEIKR
binds | RhD193.126G05 (Fab, V domains shown, Tested as Fab (periplasmic extract)) VH: QVQLVETGGGVVQPGRSLRLSCAASGFTFSSYGMHWVRQAPGKGLEWVAVIWYDGSNKDYADPVKGRFTISRDNSKNTLYLQMNSLRAEDTAVYYCAREIASRGYSRYLYYFDSWGQGTLVTVSS VL: DIQMTQSPSSLSASVGDRVTITCRASQSISSYLNWYQQNPGKAPKLLIYGASNLQSGVPSRFSGSGSGTDFTLTISSLQPEDFATYYCQQSYSTLALTFGGGTKVEIKR
binds | RhD297.126E06 (Fab, V domains shown, Tested as Fab (periplasmic extract)) VH: QVQLVESGGGVVQPGRSLRLSCAASGFTFRTYGMHWVRQAPGKGLEWVAVIWYDGSNKDYADSVKGRFTISRDNSKNTLHLQMNSLRAEDTAVYYCAREIASRGYSRYLYYLDFWGQGTLVTVSS VL: DIQLTQSPSSLSASVGDRVTITCRASQSISSYLNWYQQNPGKAPKLLIYGASNLQSGVPSRFSGSGSGTDFTLTISSLQPEDFATYYCQQSYSTLALTFGGGTKVEIKR
binds | RhD200.164G10 (Fab, V domains shown, Tested as Fab (periplasmic extract)) VH: VQLVESGGGGVVQPGRSLRLSCAASGFTFSSYGMHWVRQAPGKGLEWVAVIWYDGSNKYYADSVKGRFTISRDNSKNTLYLQMNSLRAEDTAVYYCARESTLYSSSWYRRYYYYGMDVWGQGTTVTVSS VL: not shown
binds | RhD201.164H12 (Fab, V domains shown, Tested as Fab (periplasmic extract)) VH: QVQLVESGGGVVQPGRSLRLSCAASGFTFSSYAMHWVRQAPGKGLEWVAVISYDGSNKYYADSVKGRFTISRDNSKNTLYLQMNSLRAEDTAVYYCARESTLYSSSWYRRYYYYSMDVWGQGTTVTVSS VL: EIVLTQSPATLSVSPGERATLSCRASQSVTSNLAWYQQKPGQAPRLLIYGASTRATGVPARFSGSGSGTEFSLTISSLQSEDFAVYYCQQYNNWPPIFTFGPGTKLDIKR
binds | RhD191.119E08 (Fab, V domains shown, Tested as Fab (periplasmic extract)) VH: QVQLVESGGDLVQPGGSLRLSCAASGFTFRSYEMNWVRQAPGKGLEWVSYINSRGNTKYYADSVKGRFTISRDNAKKSLYLQMSSLRAEDTAVYYCARNLFGDYDLKSYYYNAMDVWGQGTLVTVSS VL: EIVLTQSPGTLSSSPGERATLSCRASQSVTSRYLAWYQQKHGQAPRLLIYGTSTRATGIPDRFSGGGSQTDFTLTISRLEPEDFAVYYCQHYDDSISTYIFGPGTELEIKR
binds | RhD202.158E07 (Fab, V domains shown, Tested as Fab (periplasmic extract)) VH: QVQLVESGGGVVQPGRSLRLSCAASGFTFSSYGMHWVRQAPGKGLEWVAVIWFDGSNRYYGDSVKGRVTISRDNSKNTLYLRMNSLRAEDTAVYYCAREFYTRSGLWSQGYSYYMDVWGKGTTVTVSS VL: EIVLTQSPGTLSLSPGERATLSCRASQSVSSSYLAWYQHKPGQAPRLLIYGSSNRATGIPDRFSGSGSGTDFTVTISRLEPEDFAVYYCQQYGTAPYTFGQGTKLEIKR
binds | RhD194.126G10 (Fab, V domains shown, Tested as Fab (periplasmic extract)) VH: QVTLKESGPVLVKPTETLTLTCTVSGFSLSNARMGVSWIRQPPGKALEWLAHIFSNDEKSYSTSLKSRLTISKDTSKSQVVLTMTNMDPVDTATYYCARMRLTMVRGVITYYYYSMDVWGQGTTVTVSS VL: DIQMTQSPSSLSASVGDRVTITCRASQSISTYLNWYQQKPGKAPKLLIYAASTLQSGVPSRFSGSGSGTHFTLTISSLQREDFATYYCQQTYRTPTWTFGQGTKVEIKR
binds | RhD298.126E10 (Fab, V domains shown, Tested as Fab (periplasmic extract)) VH: QVQLVESGGGVVQPGRSLRLSCAASGFTFSSYGMHWVRQAPGKGLEWVAVIWYDGSNKYYADSVKGRFTISRDNSKNTLYLQMNSVRAEDTAVYYCARDLSTQRGYSRYYYVMDVWGQGTTVTVSS VL: DIQMTQSPSSLSASVGDRVTITCRASQSISTYLNWYQQKPGKAPKLLISAASSLQSGVPSRFSGSGSGTDFTLTISSLQREDYAAYYCQQSYSTPPYTFGQGTKLEIKR
binds | RhD196.126H11 (Fab, V domains shown, Tested as Fab (periplasmic extract)) VH: QVQLVESGGGVVQPGRSLRLSCAASGFTFSSYGMHWVRQAPGKGLEWVAVIWYDGSNKDYADSVKGRFTISRDNSKNTLYLQMNSVRAEDTAVYYCARELSTQRGYSRYHYVMDVWGQGTTVTVSS VL: DIQMTQSPSSLSASVGDRVTITCRASQSISTYLNWYQQKPGKAPKLLIYAASTLQSGVPSRFSGSGSGTHFTLTISSLQREDFATYYCQQSYGTPTWTFGQGTKVEIKR
binds | RhD198.127F10 (Fab, V domains shown, Tested as Fab (periplasmic extract)) VH: QVQLVQSGGGVVQPGKSLRLSCAASGFTFSTYGMHWVRQAPGKGLEWVAVIWYDGSNKYYADSVKGRFTISRDTSKNTLYLQMNSVRVEDTAVYYCARDLTTQRGYSRYHYVMDVWGQGTTVTVSS VL: DIQMTQSPSSLSASVGDRVTITCRASQSIGNYLNWYQQKPGKAPKLLISAASSLQSGVPSRFSGSGSGTDFTLTISSLHREDYATYYCQQSYSTPPYTFGQGTKLEIKR
